{"source": "the DeepSol protein solubility set"}
{"assay": "soluble on expression in E. coli; label from the status in PepcDB or PDB records"}
{"sequence": "MSLDPQYDGVWRQSLALLAQDTAGVIPSSTAVKWLTDQQCANGAFAPFRADPAKACDAKTPVDTNNTAAAVQALWAVGGHGDVIEEALGWLKSVQNEDGGWGYVPGTPSDANSTSVVIGALTATETDPAKVVKDGKSPYDALLTFALPCAKDKGAGAFAFQPDKDGKLLPNADATAAGVLGTLGEGLVAEAGKKTGAASCADADQPDRERAAANAAAYLTDTLAKDGHLVSALGGSADQPDYGNTADAVVALAAQGGADKAAEPLAWLKKNAAKWAGEGHHHHHH", "soluble on expression in E. coli": "soluble"}
{"sequence": "MSLDRKGNPVVRWDNNWLGSNEPCEDRWATDLVRRDGAAGGAVGKAVNFWTRWYRGDSIPSESAPAEEDEAARGKHDLMLFSIMDGHAGDATSRLLQKSLHPTISMALAGLQRGNVPPRHNVWERWAGYLNPWYWLGTDTVWTPENVSKTIQNAFVQLDDNICQTPLKLLPTLSSPSTSSPTPRETLVALAQPAAAGACAISTLVDSENDDLYVAVTGDCRAVAGWEGEDGKWRCDVLSEDQMGDNPKEIERMRSEHPASERDTVIRNGRVQGGLQPTRAFGDAVYKWTNAQAAQIADAFRAQGERPRPGRPWNYTPPYVTARPEVTYRKLNAHTGEKLRFIVLATDGLWDRITSEESTLLLASYLSHPSHAPLPKSALPRREGHHHHHH", "soluble on expression in E. coli": "soluble"}
{"sequence": "MSLDRYLGFANSNLGRRLVDALGLPRPAPLERWQAGRLRPVEGALVLGGGPLAKQVEAIAPRLTDEVYSFNADNLQAEAWVAGLGPKIKAVVFDASHLSDSDALKQLREFFQPLLRSLAPCAHVLVLGRAPEGLDDPLASVAQRALEGFSRSLAKELRNGATAQLLYVAPGAEDQLEGALRFFLSPKSAFISGQVLRLQGCTSQVEDWTRPLGGRRALVTGAARGIGAAIAETLARDGADVLLLDVPQASKDLDALAARLGGKALPLDICASDAATQLLAALPDGIDIVVHNAGITRDKTLVNMTPEYWDAVLAVNLKAPQVLTQALYDNGALGENARITLLASVSGIAGNRGQANYAASKAGLIGLAQAWAPRLAERGGSINAIAPGFIETHMTAAMPMGLREAGRRLSSLGQGGSPQDVAEAIAWLSQPGSGSVNGQVLRVCGQALMGAEGHHHHHH", "soluble on expression in E. coli": "soluble"}
{"sequence": "MSLDSQQKLAAQVTTPLTLSGDNQQAVAIFDQADPRIRIVYFGFTRCPDVCPTSLAMLSAALNQVDDKTKAQLRPMFISLDPERDDAKLAAQYAHYFHPMIEGLSGSVATTNQIAQKYGVIFRKTELPNSELKYTLDHSSYFYFLQPDGTLINKVPHTQDPTPIVDAIKKVIQEGHHHHHH", "soluble on expression in E. coli": "soluble"}
{"sequence": "MSLDSSMKISKVDNIGNHEDIEVNNAEIALSLASQMVGSGEEVVSMSIKYSKERVAFGKPIGSYQAIKHRVVNDAIDVELARSLILEAAENIKYAWIAKDLANKKIPKAILSGIQVHGGIGFTDDLDIHLHLRRALTLSKLYNSKVNISEFLQPIEGHHHHHH", "soluble on expression in E. coli": "not soluble"}
{"sequence": "MSLDSYRTARLMQEGVTYPVIVRPHNQILENRINRIIRETAEELLPSGRYRTMNIITAASEYETTVNKNEILSIRFENYYYPEMMASGITVVRAVTLNLVTGRRYRLKDLFIPGIDYEDYLNRLIERQIEERDIPLINDFPGITGNEVFYLTEGELVIVYQRYELTPGYYGVLEFEIPYEELQPLIDETSPIYMIAQNSEGHHHHHH", "soluble on expression in E. coli": "soluble"}
{"sequence": "MSLDTEAVLAAVEDAPVRETLDSMVASLKSHEDSEFAGAIATFTGRVRERDDPDDTPTQHLEFERYDTVAEQRMATIREQLCERDGVYDVRMHHRTGVVPAGDDVVHVVVLAGHRGDAFRAVSDGIDRLKDEVPLFKKEVTVDDAFWRHDEGHHHHHH", "soluble on expression in E. coli": "soluble"}
{"sequence": "MSLDTTPEHLVGTDAETIDLSFAAPAAPVEILHAAFATALEQLPRHFERHGYDRYGTAELREAVARWYQRRGLPTRPDHILITNGAQHALALLTRVLLSPRDKVLIDHPTYPHAITTFTQARARLLPVAVTSSGWDTEQLQAAGQAANLAYLIPDFHNPTGMCMPTSVRQQLRLACPTVVDETMTDLALDVPSPEPLALHMPTAISIGSVSKSVWGGLRTGWIRALPSLLERVEQARPTTDLGTPVVEQLATAVLLNEHQTQRPDTLQQLRSQRDALWQALTEHLPNVHAPQPAGGVTLWAAFPGPVSSRLAAMAPDHGVTIAAGPRFGIGGAFERNIRLPYTLPSSQLAQAIRRLAQAAQALAQGATGTEGHHHHHH", "soluble on expression in E. coli": "not soluble"}
{"sequence": "MSLEATIRLGSSLPLTGHARYLGVETLRGALAYINHVNDSGGVHGRRIELDARDDGYDPPRCLANTQEQLISGEVFALTCYVGTPTTMRILPLVDEARIPLVGAFTGANGLRDPFSRYVFNVRASYYQETDAAVRHLVHDLGLTRIAVFYQYDAYGFDGLTGTELALRELGLAPVARGSYARGTDNIEDGLHRIIASDAEAVLMVGTSEPTARFIRMAEEAGFDAVYHALSFTGAEELARLLGHTDAKVLLSQVVPPPDAPEAPAILGCTTEYVNLLKRYYPDATPSAIGLEGYINARILVEGLRRAGPDLTREGFVRALESLRDYPLGGRTVVSFSPESRQGMGSVYFTRLVGGRFELMREAGAPPSAARPASNKGEGHHHHHH", "soluble on expression in E. coli": "soluble"}
{"sequence": "MSLEDGPVTNPRQEEPQKVVKEEGFARGADVSWLTQMEAEGLKFYTPDENRQEMECMDLLRDYCGVNSIRLRVWVNPKDGWNNMNDVIVKAKRAERLGLRTMIDFHFSDTWADPGHQEMPEAWKELSFDDLKIALSEHVKSVLTALKAVGVTPEWVQVGNETTPGMMLPVGSVDNPEQLTALNNAGYDAVKAICPDAKVIVHLDAGNDQWVYNRMFDILQANGGKYDMIGMSLYPYWAEQEGKTGGWLKVADDCIANIKHVKQKYNKPVMICEIGMPYDQAEACKQLITKMMQADVEGIFYWEPQAPNGYNDGYNLGCFDNNAPTIALDAFKIEGHHHHHH", "soluble on expression in E. coli": "soluble"}
{"sequence": "MSLEGINPAVIMKAIMQSESVEQLSQEREKAEKLLKMYIAQDVAIHFISNIFTELNDALIVKAIEFSVADMKREGIDLPDIEFCWLSLGSEGRKEQLLRTDLDNAILFRDPENEASRETVQRVFLELGKRVTAILVACGFKPCPAEIMASNPEWCQPLSGWMNYFRKWIGTPEPKALMNSTIFFDFRPVYGSTALALEMKREINTEIARGRGFLQFFAKNALQNPPPLGFFRNFLVEKSREHAHEFDIKARALMPLSDAARVLACEFGVTDFLGTVERFRRIGQLLPSFQELAEEAAQGYEFLMRLRTEHGLAEKSSGRYIDPKHLNKMQRQKLRDLFTTIGKVQSMLNLRYQLDYIRAEGHHHHHH", "soluble on expression in E. coli": "soluble"}
{"sequence": "MSLEGTQMLATNKKCWDTVAPYFFQVDCLPKYGPYTASEDEIRLFDSIRKKKVLDIGCGSGHSLQYMAEQGAEELWGLDLSSTQIEIANKTLKDWNPKLVCGAMEEEGDIPKGYFDIVYSIYALGWTSDLRKTLELIYSYVKPGGSFIFSWEHPVYSNLQYGTEEVAIKSSYHEETPITFETFKGENVQATLHKRKISTYINELNRAGFKIERIEEPEPSSSLDGELAEPSTKYYSLYKARMVPTTFIIKARKEGHHHHHH", "soluble on expression in E. coli": "soluble"}
{"sequence": "MSLEINKGEGAVLGKEFFCEEEPGYLIEEEEEKELLEFISSGNLEIDRRLEGGIPAGSLCLLEGANDSGKSIFLQQIIWGALNQDKTVLFLTTEKTSKEVLNQMESLKRGISDYFIIGRSKIFEINAGYVEENPRLSESLLQVLLECIQRCEEELVLIDSLTIFAVNASENAVLNFFTECVKLCDRGKTILISVHGYAFSQAVLYRLRSVCSACLELRIEQVGDQWVKTMEIQKLRGARKTTGNLLSFDVDSEFGLKIIPVSKIKAEGHHHHHH", "soluble on expression in E. coli": "soluble"}
{"sequence": "MSLEKELVTWFNILNKPPLEYLKGVEDFYNAYGEVLEMQDRHAHLLSYKDDDYLHVILCASILHHYSDQDIETLKELLVKFYYQDWVAGQTKTTRSQTCCNIINVLKEKKSMDYITSIVKEYLDDKNITQRFKDNLKDSNLYTKFYFINGKTAKKNSWVKPILILVEYFMSDNANPACIKMDDDLHVERILPQNPDPSSQWMKDFSEEERGLYTHSLANLTLLGGKKNTKALSQALNQDFKEKKEIYMGKTIMLDNKKTFRVMTCYDMTKNDVCRYTEWTPTSLEKRKESEGHHHHHH", "soluble on expression in E. coli": "not soluble"}
{"sequence": "MSLEKQKLIKLIDVAAGRKKADLVLKNAKIVDVFQAKILTGDIAISDGYIAGIGGSYQGVVECNYTGKYVAPGFIEAHIHIESSYVSPEEFSRVFIPRGTTTILADPHEIVNVAGLKGLDYMVNAAKNAKMDIRYMMPPCVPATNFETSGADLYADDMEDALKTGEVDGLAELMNFPGVINADDKMIDEILMAKKYGARIDGHAPQVVGKDLNAYIAAGPANDHECSTLEEAEERLARGMYLLLREGSVTQDLRKLLPIVNTANSRRCLLSGDDVQAKTAINKGHLDNSIRICIDEGLNPITAIQMATLNPAEYCGLNDRGAIAPGRRADMVVFESLEDFAVEETYILGEKLSQGNEYLGEVNYYPIDSVESSMHVKDFTREKLQLHLNSDKVRAIGVVPGEVLTTEEHVTVKRDGDGNFVYNDQEDVTKIVVVERHHNTGNVNVNLLSGYGIKAGAIAISIGHDSHNIIATGTNDDDIFMAVNELIKQEGGAVVVKDEKVISRMELKIAGLMCNLPAEKMIAQQDALDEAVHEELGVPDNVNPVMTLSFMPLAVIPKLKITDKGLVDVEKNAFVSNELDEGHHHHHH", "soluble on expression in E. coli": "soluble"}
{"sequence": "MSLEKSGFIVHQKFDSILQLEDFDSLDRALKESESYYQKLPSNWKTQVRKTSYHKNQMLNSLKILKKILREKNPESRKIQFQNSFLLLETKDEALGRITAYYEVIIEGRFYPEGDFIYPVLETPSDLIVKKDGNKKSVGKIINEVFVPYETREELSHTSVWKKRSKAIVYVKIVDLHLAQLEGSAFVKVPDHIPFRITYSEDNGKEYQSPAESLKGICSSLIPSDLKSCILKYPKEVEMAILKNPRYIFFKLESSAPRGSGGIELIPKRSVAMDPGIPLGIPVLISFESSVLTEKNRIVFVHDRGSQITGHGRLDYFLGTGETAEYQAGKINTQGKIFLILPKIKNEGHHHHHH", "soluble on expression in E. coli": "soluble"}
{"sequence": "MSLELKYKIGFPSLYYPKISLADRIDAAAEKFGEKTAIISAEPKFPSEFPESMNFLEICEVTKKLASGISRKGVRKGEHVGVCIPNSIDYVMTIYALWRVAATPVPINPMYKSFELEHILNDSEATTLVVHSMLYENFKPVLEKTGVERVFVVGGEVNSLSEVMDSGSEDFENVKVNPEEDVALIPYTGGTTGMPKGVMLTHFNLAANALQLAVATGLSHMDTIVGCMPMFHSAEFGLVNLMVTVGNEYVVMGMFNQEMLAENIEKYKGTFSWAVPPALNVLVNTLESSNKTYDWSYLKVFATGAWPVAPALVEKLLKLAAEKCNNPRLRHNQIWGMTEACPMVTTNPPLRLDKSTTQGVPMSDIELKVISLEDGRELGVGESGEIVIRGPNIFKGYWKREKENQECWWYDEKGRKFFRTGDVGFIDEEGFLHFQDRVKEVIKYKGYTIAPFELEALLMKHEAVMDVAVIGKPDEEAGEVPKAFIVLKPEYRGKVDEEDIIEWVRERISGYKRVREVEFVEELPRTASGKLLRRLLREKEAEGHHHHHH", "soluble on expression in E. coli": "soluble"}
{"sequence": "MSLELLSNRLEFLREAERLKDVLRSAHTSSGRPESTAEHSWRLCLMALAFEDQLAGLDLGKVLRMCVVHDLGEAIHGDIPAVEQAAHPDKGEQERADLLQLTRHLDAPLRDRLLALWDEYERGESAEALAVKALDKLETLLQHTQGDNPADFDYAFNLDYGRRYTDRAPLFKTLRELLDARTRQRLAVRRDA", "soluble on expression in E. coli": "not soluble"}
{"sequence": "MSLELSQKKWKSFKISEIFRIESCKCGNASLLEDGDDLFYRGAKKNDNGVIRRVKRIDSLVSKGNCIMFICDGDGSCGYTNYISDDFIGSTTTSVGYNENLNVYIGTFITTILDMHKYKYSHSRKYRNSLLNEILILPINNDGIPDWKWIEEYMKSLSGSINTQIYDIIDTADGDRNIVKFFINKIEASDFKLWLQDNANMDVNNQMSLKDVKWKGFKLSELFNIERGCRLKKSNRITGNTLLITAGKENHGIAMYVEPPMNSEGNLINKIYKDRLTIDMFCNSFYQSENFICDDNILVLIEKQKMTKNIKHFIATILSMDIYKFSFTRQYRQKDFNKHIIMLPINDKGNLDWEWIEEYMKSLPYSDKETRLFVNTIEGHHHHHH", "soluble on expression in E. coli": "soluble"}
